Common to all, as to assay: cell-based or functional assay
One experiment concerns the target T1, GLP-1 receptor, P43220.
T1 chain: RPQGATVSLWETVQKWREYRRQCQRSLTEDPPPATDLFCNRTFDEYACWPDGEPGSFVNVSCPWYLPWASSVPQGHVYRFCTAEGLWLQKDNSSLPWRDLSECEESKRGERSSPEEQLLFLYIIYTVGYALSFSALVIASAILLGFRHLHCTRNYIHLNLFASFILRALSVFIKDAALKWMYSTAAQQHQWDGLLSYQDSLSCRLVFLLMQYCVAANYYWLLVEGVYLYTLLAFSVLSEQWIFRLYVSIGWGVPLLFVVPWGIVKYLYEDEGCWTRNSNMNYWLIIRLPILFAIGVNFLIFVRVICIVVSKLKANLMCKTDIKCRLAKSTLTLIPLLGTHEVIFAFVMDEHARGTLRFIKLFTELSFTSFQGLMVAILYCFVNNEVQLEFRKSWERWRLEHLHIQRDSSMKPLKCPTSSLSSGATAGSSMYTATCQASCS

The target in the next experiment is T2, GIP receptor, P48546.
T2 chain: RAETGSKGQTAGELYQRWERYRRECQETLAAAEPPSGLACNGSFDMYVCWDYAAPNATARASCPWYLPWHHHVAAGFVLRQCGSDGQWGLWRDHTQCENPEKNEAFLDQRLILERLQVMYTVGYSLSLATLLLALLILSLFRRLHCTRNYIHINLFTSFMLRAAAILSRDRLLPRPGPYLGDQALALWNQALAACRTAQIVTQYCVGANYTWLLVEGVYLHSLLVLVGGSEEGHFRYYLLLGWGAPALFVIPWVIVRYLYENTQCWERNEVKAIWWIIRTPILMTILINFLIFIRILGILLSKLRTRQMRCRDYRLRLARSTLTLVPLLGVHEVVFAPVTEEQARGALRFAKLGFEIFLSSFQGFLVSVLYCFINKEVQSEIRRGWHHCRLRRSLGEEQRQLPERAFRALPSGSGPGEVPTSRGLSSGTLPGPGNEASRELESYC

For experiment [1], the target named is glucagon receptor, P47871.
Chain of glucagon receptor, P47871 (P47871 26-477 limits assumed): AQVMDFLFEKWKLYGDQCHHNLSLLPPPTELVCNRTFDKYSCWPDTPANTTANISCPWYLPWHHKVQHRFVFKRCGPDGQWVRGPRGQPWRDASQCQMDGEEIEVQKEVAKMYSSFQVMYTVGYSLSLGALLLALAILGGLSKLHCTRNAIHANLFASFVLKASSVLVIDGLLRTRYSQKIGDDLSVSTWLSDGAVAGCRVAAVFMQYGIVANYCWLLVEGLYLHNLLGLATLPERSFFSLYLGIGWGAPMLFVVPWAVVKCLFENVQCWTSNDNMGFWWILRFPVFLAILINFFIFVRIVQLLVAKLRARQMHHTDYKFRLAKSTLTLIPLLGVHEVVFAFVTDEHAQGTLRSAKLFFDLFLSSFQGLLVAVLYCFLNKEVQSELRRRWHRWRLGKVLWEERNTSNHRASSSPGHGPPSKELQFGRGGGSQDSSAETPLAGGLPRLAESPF

Where no end group is shown, it is not given here. [ ]: non-standard residue; d: D form. The star is where a group is joined. Palmitoyl = CCCCCCCCCCCCCCCC(=O)*; Aib = CC(C)(N)C(=O)O

The term EC50 denotes the midpoint of the concentration-response curve. High values mean a less potent agent, low ones a more potent agent.

B1: mt-297 (peptide)
peptide: Y[Aib]QGTFTSDYSIYLDKQAA[Aib]EFVCWLMNGGPSSGAPPPSK(Palmitoyl)-NH2
modifications: N-terminus assumed
SMILES: CCCCCCCCCCCCCCCC(=O)NCCCC[C@H](NC(=O)[C@H](CO)NC(=O)[C@@H]1CCCN1C(=O)[C@@H]1CCCN1C(=O)[C@@H]1CCCN1C(=O)[C@H](C)NC(=O)CNC(=O)[C@H](CO)NC(=O)[C@H](CO)NC(=O)[C@@H]1CCCN1C(=O)CNC(=O)CNC(=O)[C@H](CC(N)=O)NC(=O)[C@H](CCSC)NC(=O)[C@H](CC(C)C)NC(=O)[C@H](Cc1c[nH]c2ccccc12)NC(=O)[C@H](CS)NC(=O)[C@@H](NC(=O)[C@H](Cc1ccccc1)NC(=O)[C@H](CCC(=O)O)NC(=O)C(C)(C)NC(=O)[C@H](C)NC(=O)[C@H](C)NC(=O)[C@H](CCC(N)=O)NC(=O)[C@H](CCCCN)NC(=O)[C@H](CC(=O)O)NC(=O)[C@H](CC(C)C)NC(=O)[C@H](Cc1ccc(O)cc1)NC(=O)[C@@H](NC(=O)[C@H](CO)NC(=O)[C@H](Cc1ccc(O)cc1)NC(=O)[C@H](CC(=O)O)NC(=O)[C@H](CO)NC(=O)[C@@H](NC(=O)[C@H](Cc1ccccc1)NC(=O)[C@@H](NC(=O)CNC(=O)[C@H](CCC(N)=O)NC(=O)C(C)(C)NC(=O)[C@@H](N)Cc1ccc(O)cc1)[C@@H](C)O)[C@@H](C)O)[C@@H](C)CC)C(C)C)C(N)=O
In the case of B1, the EC50 with GLP-1 receptor, P43220 was 0.0129 nM; in the experiment with GIP receptor, P48546, 0.0168 nM; in experiment [1] it was 0.0132 nM.

These data come from patent US20110166062A1.
